Changes are numbered by the printed parent chain.
T1: human CD7 (human, UniProt P09564 26-180, limits assumed)
T1 construct: The construct is not described
T1 sequence (looked up): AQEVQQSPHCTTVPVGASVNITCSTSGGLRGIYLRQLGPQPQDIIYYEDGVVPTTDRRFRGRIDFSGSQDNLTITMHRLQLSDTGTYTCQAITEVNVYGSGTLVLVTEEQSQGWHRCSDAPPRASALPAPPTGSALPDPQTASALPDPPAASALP

T2: human CD7 on cells (human, UniProt P09564 26-240)
T2 construct: whole, on cells; Target of the FACS and cell capture values and of the kill assays on CD7 single positive cells; also called CD7+ cells; Jurkat (CD33-/CD7+)
T2 sequence (looked up): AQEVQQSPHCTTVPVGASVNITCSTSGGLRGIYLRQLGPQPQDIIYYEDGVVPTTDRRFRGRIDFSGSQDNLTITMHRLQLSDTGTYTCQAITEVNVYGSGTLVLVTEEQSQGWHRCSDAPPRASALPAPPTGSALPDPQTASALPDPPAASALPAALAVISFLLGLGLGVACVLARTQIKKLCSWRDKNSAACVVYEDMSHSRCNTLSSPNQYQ

B1: CD7-PP-7 CD7 binding arm (Fab, V domains shown)
VH: QVQLQESGAELVKPGASVKLSCKASGYTFTSYWMHWVKQRPGQGLEWIGKINPSNGGTNYNEKFKSKATLTVDKSSSTAYMQLSSLTSEDSAVYYCARGGVYYDLYYAALDYWGQGTTVTVSS
VL: DIELTQSPATLSVTPGDSVSLSCRASQSISNNLHWYQQKSHESPRLLIKSASQSISGIPSRFSGSGSGTDFTLSINSVETEDFGMYFCQQSNSWPYTFGGGTKLEIKR
notes: Heavy chain Arg57Gly/Tyr108Ala
B2: 7-PP-11 (Fab, V domains shown)
VH: B1 VH with G57R, D104A
VL: B1 VL
B3: CD7-PP-2 CD7 binding arm (Fab, V domains shown)
VH: B1 VH with A108Y
VL: B1 VL
notes: Heavy chain Arg57Gly
B4: CD7-PP-6 binding arm (Fab, V domains shown)
VH: B1 VH with G57R, D104A, A108Y
VL: B1 VL
notes: Heavy chain Asp104Ala
B5: CD7-PP-12 CD7 binding arm (Fab, V domains shown)
VH: B1 VH with G57R, A108Y
VL: B1 VL with Q27A
notes: Light chain Gln27Ala
B6: CD7-PP-8 CD7 binding arm (Fab, V domains shown)
VH: B1 VH with G57K
VL: B1 VL
B7: CD7-PP-3 CD7 binding arm (Fab, V domains shown)
VH: B1 VH with G57K, A108Y
VL: B1 VL
notes: Heavy chain Arg57Lys
B8: 7-PP-4 (Fab, V domains shown)
VH: B1 VH with G57R, Y102T, A108Y
VL: B1 VL
B9: 7-PP-9 (Fab, V domains shown)
VH: B1 VH with G57R, Y102T
VL: B1 VL
B10: 7-PP-5 (Fab, V domains shown)
VH: B1 VH with G57R, L105G, A108Y
VL: B1 VL
B11: 7-PP-10 (Fab, V domains shown)
VH: B1 VH with G57R, L105G
VL: B1 VL
B12: BVX100-MMAE (bispecific antibody)
heavy: QVQLQESGAELVKPGASVKLSCKASGYTFTSYWMHWVKQRPGQGLEWIGKINPSNGRTNYNEKFKSKATLTVDKSSSTAYMQLSSLTSEDSAVYYCARGGVYYDLYYYALDYWGQGTTVTVSSASTKGPSVFPLAPSSKSTSGGTAALGCLVKDYFPEPVTVSWNSGALTSGVHTFPAVLQSSGLYSLSSVVTVPSSSLGTQTYCCNVNHKPSNTKVDKKVEPKSCDKT
light: DIELTQSPATLSVTPGDSVSLSCRASQSISNNLHWYQQKSHESPRLLIKSASQSISGIPSRFSGSGSGTDFTLSINSVETEDFGMYFCQQSNSWPYTFGGGTKLEIKRTVAAPSVFIFPPSDEQLKSGTASVVCLLNNFYPREAKVQWKVDNALQSGNSQESVTEQDSKDSTYSLSSTLTLSKADYEKHKVYACEVTHQGLSSPVTKSFNRGEC
VH: EVQLVQSGAEVKKPGSSVKVSCKASGYTITDSNIHWVRQAPGQSLEWIGYIYPYNGGTDYNQKFKNRATLTVDNPTNTAYMELSSLRSEDTAFYYCVNGNPWLAYWGQGTLVTVSS
VL: DIQLTQSPSTLSASVGDRVTIICRASESLDNYGIRFLTWFQQKPGKAPKLLMYAASNQGSGVPSRFSGSGSGTEFTLTISSLQPDDFATYYCQQTKEVPWSFGQGTKLEIK
B13: BVX110-MMAE (bispecific antibody)
heavy: B12 heavy with R57G
light: B12 light
VH: B12 VH
VL: B12 VL
B14: BVX150-MMAE (bispecific antibody)
heavy: B12 heavy with R57K, Y108A
light: B12 light
VH: B12 VH
VL: B12 VL
B15: BVX130-MMAE (bispecific antibody)
heavy: B12 heavy with D104A
light: B12 light
VH: B12 VH
VL: B12 VL
B16: BVX160-MMAE (bispecific antibody)
heavy: B12 heavy with Y108A
light: B12 light
VH: B12 VH
VL: B12 VL
B17: BVX140-MMAE (bispecific antibody)
heavy: B12 heavy with R57G, Y108A
light: B12 light
VH: B12 VH
VL: B12 VL
B18: BVX120-MMAE (bispecific antibody)
heavy: B12 heavy with R57K
light: B12 light
VH: B12 VH
VL: B12 VL
B19: BVX160 (bispecific antibody)
heavy: B12 heavy with Y108A
light: B12 light
VH: B12 VH
VL: B12 VL
notes: bi-Fab; also called CD33-PP-1 WT/CD7-PP-13

target: T1, human CD7; test: SPR

Binder | Kd [nM]
B1 | 541
B2 | 246
B3 | 75.7
B4 | 45.2
B5 | 5.46
B6 | 229
B7 | 32.5

target: T2, human CD7 on cells; test: FACS; reference 7-PP-1 WT

Binder | FACS fold reduction compared to PP WT [fold]
B8 | 3740
B9 | 517
B1 | 502
B2 | 105
B3 | 64.9
B4 | 18.3
B10 | 503
B11 | 628
B5 | 0.004
B6 | 182
B7 | 24.5

target: T2, human CD7 on cells; test: cell-based or functional assay

Binder | EC50 (nM), cytotoxicity (MTS, 96 h) on Jurkat cells (CD7+/CD33-) [nM]
B12 | 0.92
B13 | 4.52
B14 | 1.6
B15 | 5.83
B16 | 7.31
B17 | 22.8
B18 | 1.52

target: human CD33 on cells (human, UniProt P20138 18-364); test: cell-based or functional assay
Sequence (P20138 18-364): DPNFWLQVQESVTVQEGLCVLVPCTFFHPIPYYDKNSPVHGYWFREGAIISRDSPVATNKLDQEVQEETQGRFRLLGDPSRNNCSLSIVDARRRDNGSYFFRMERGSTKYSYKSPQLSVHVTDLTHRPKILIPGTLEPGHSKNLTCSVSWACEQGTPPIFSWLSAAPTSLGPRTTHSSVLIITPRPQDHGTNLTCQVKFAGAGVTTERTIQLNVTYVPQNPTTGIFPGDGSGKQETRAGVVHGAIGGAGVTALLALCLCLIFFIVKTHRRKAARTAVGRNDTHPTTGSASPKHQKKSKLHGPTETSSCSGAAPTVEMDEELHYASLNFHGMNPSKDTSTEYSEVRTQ

Binder | EC50 (nM), cytotoxicity (MTS, 96 h) on MV4.11 cells (CD7-/CD33+) [nM] | EC50 (nM), cytotoxicity (MTS, 96 h) on SHI-1 cells (CD7-/CD33+) [nM]
B12 | 10.8 | 2.26
B13 | 27 | 11.4
B14 | 9.19 | 5.23
B15 | 24.1 | 17.5
B18 | 16.5 | 7.21

target: T2, human CD7 on cells; test: FACS; cells not named

Binder | FACS binding
B8 | 1990
B9 | 275
B1 | 267
B2 | 55.9
B3 | 34.6
B4 | 9.76
B10 | 268
B11 | 335
B5 | 0.002
B6 | 96.8
B7 | 13

target: T1, human CD7; test: SPR; reference 7-PP-1 WT

Binder | Fold Reduction in binding affinity compared to PP WT (Kd) [fold]
B1 | 152
B2 | 69.1
B3 | 21.3
B4 | 12.7
B5 | 1.53
B6 | 64.3
B7 | 9.13

target: T1, human CD7; test: SPR (Kd); value of the CD7 arm 7-PP-13

Binder | Fold reduction in binding affinity vs 7-PP-1 WT [fold]
B19 | 20.3

target: T3, human CD33 (human, UniProt P20138 18-259, limits assumed); test: SPR (Kd); value of the CD33 arm 33-PP-1 WT
T3 construct: The construct is not described
T3 sequence (P20138 18-259 limits assumed): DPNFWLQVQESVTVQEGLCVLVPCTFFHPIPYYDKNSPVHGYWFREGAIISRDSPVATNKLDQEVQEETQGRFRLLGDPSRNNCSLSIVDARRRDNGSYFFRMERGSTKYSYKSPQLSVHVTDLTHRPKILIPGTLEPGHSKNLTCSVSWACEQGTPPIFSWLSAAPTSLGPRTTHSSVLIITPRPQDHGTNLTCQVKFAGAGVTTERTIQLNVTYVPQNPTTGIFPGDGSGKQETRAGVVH

Binder | Fold reduction in binding affinity vs 33-PP-1 WT [fold]
B19 | 0

target: T1, human CD7; test: SPR; reference 7-AA-WT

Binder | Fold Reduction in binding affinity compared to WT (Kd) [fold]
B1 | 206
B2 | 93.7
B3 | 28.8
B4 | 17.2
B5 | 2.08
B6 | 87.2
B7 | 12.4
